Positions count from the first letter of the chain named.

The chains are these.
B1: 29H8D3-z23 (antibody, V domains shown)
VH: QVQLVQSGAEVKKPGASVKVSCKASGYTFTDHTIHWMRQAPGQGLEWIGYIYPRDGYTKYNEKFKDRATMTTDTSTSTAYMELRSLRSDDTAVYYCARFYYGYWYFDVWGQGTTVTVSS
VL: DIVMTQSPLSLPVTPGEPASISCRSSKSLLRSNGNTYLYWFLQKPGQSPQVLIYRMSNLASGVPDRFSGSGSGTAFTLKISRVEAEDVGVYYCMQHLEYPFTFGAGTKLEIK
notes: Humanized, human IgG1 constant region
B2: 29H8D3-z18 (antibody, V domains shown)
VH: B1 VH with M37V
VL: B1 VL with A105Q
notes: as for B1
B3: 29H8D3-z17 (antibody, V domains shown)
VH: B1 VH with M37V, I48M, A68V
VL: B1 VL with A105Q
notes: as for B1
B4: 29H8D3-z22 (antibody, V domains shown)
VH: B1 VH with M37V
VL: B1 VL
notes: as for B1
B5: 29H8D3-z20 (antibody, V domains shown)
VH: B1 VH with A40R, M70L, T72A
VL: B1 VL with A105Q
notes: as for B1
B6: 29H8D3-z19 (antibody, V domains shown)
VH: B1 VH
VL: B1 VL with A105Q
notes: as for B1
B7: 29H8D3-z21 (antibody, V domains shown)
VH: B1 VH with M37V, I48M, A68V
VL: B1 VL
notes: as for B1
B8: 69E3H11-z12 (antibody, V domains shown)
VH: QVQLVQSGAEVKKPGASVKVSCKASGYTFTTYWMHWVKQAPGQRLEWIGEIDPSDSYANYNQKFKGKATLTVDKSASTAYMELSSLRSEDTAVYYCALYYGYGDWGQGTTVTVSS
VL: EIVLTQSPGTLSLSPGERATLSCSVSSSISSIHLHWYQQKPGQAPRLLIYRTSNLASGIPDRFSGSGSGTDFTLTISRLEPEDFAVYYCQQGSNLPLTFGQGTRLEIK
notes: Humanized, human IgG1 constant region; also called 69E3H11 HU-VH1-3 / HU-VL2-0
B9: 29D2D7-z19 (antibody, V domains shown)
VH: QVQLVQSGAEVKKPGASVKVSCKASGYTFTDYDMHWVKQAPGQGLEWIGGFDPESAGTVYNLRFKDKATLTADKSTSTAYMELRSLRSEDTAVYYCARKGYYSVSSPFTYWGQGTLVTVSS
VL: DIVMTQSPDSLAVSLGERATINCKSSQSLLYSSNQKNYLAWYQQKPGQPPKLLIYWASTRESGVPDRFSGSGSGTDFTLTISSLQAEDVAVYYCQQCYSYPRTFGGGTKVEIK
notes: as for B1
B10: 61C7F12-z2 (antibody, V domains shown)
VH: EVQLVESGGGLVKPGGSLRLSCAASGFTFSSYAMSWVRQAPGKGLEWVSTINIGGSYTYYPDSVKGRFTISRDNAKNSLYLQMNSLRAEDTAVYYCARQEGRYWYFDVWGQGTTVTVSS
VL: DIQLTQSPSFLSASVGDRVTITCTASSSVSSSYLHWYQQKPGKAPKLWIYSTSNLASGVPSRFSGSGSGTEYTLTISSLQPEDFATYYCHQFHRSPYTFGGGTKVEIK
notes: Humanized, human IgG1 constant region; also called 61C7F12 HU-VH1-0 / HU-VL1-1
B11: 61C7F12-z9 (antibody, V domains shown)
VH: B10 VH
VL: EIVLTQSPGTLSLSPGERATLSCTASSSVSSSYLHWYQQKPGQAPRLLIYSTSNLASGIPDRFSGSGSGTDFTLTISRLEPEDFAVYYCHQFHRSPYTFGGGTKVEIK
notes: Humanized, human IgG1 constant region; also called 61C7F12 HU-VH1-0 / HU-VL2-0
B12: 61C7F12-z8 (antibody, V domains shown)
VH: B10 VH with S49A
VL: B10 VL with D1Q, Q3V, A44S, E71S, T73S
notes: Humanized, human IgG1 constant region; also called 61C7F12 HU-VH1-1 / HU-VL1-3
B13: 61C7F12-z10 (antibody, V domains shown)
VH: B10 VH with S49A
VL: B11 VL
notes: Humanized, human IgG1 constant region; also called 61C7F12 HU-VH1-1 / HU-VL2-0
B14: 61C7F12-z1 (antibody, V domains shown)
VH: B10 VH
VL: B10 VL with W48L, Y72F
notes: Humanized, human IgG1 constant region; also called 61C7F12 HU-VH1-0 / HU-VL1-0
B15: 61C7F12-z3 (antibody, V domains shown)
VH: B10 VH
VL: B10 VL with Q3V, A44S, T73S
notes: Humanized, human IgG1 constant region; also called 61C7F12 HU-VH1-0 / HU-VL1-2
B16: 69E3H11-z10 (antibody, V domains shown)
VH: B8 VH
VL: EIVLTQSPDFQSVTPKEKVTITCSVSSSISSIHLHWYQQKPDQSPKLLIKRTSNLASGVPSRFSGSGSGTDFTLTINSLEAEDAATYYCQQGSNLPLTFGQGTRLEIK
notes: Humanized, human IgG1 constant region; also called 69E3H11 HU-VH1-3 / HU-VL1-0
B17: 61C7F12-z4 (antibody, V domains shown)
VH: B10 VH
VL: B10 VL with D1Q, Q3V, A44S, E71S, T73S
notes: Humanized, human IgG1 constant region; also called 61C7F12 HU-VH1-0 / HU-VL1-3
B18: 61C7F12-z6 (antibody, V domains shown)
VH: B10 VH with S49A
VL: B10 VL
notes: Humanized, human IgG1 constant region; also called 61C7F12 HU-VH1-1 / HU-VL1-1
B19: 61C7F12-z5 (antibody, V domains shown)
VH: B10 VH with S49A
VL: B10 VL with W48L, Y72F
notes: Humanized, human IgG1 constant region; also called 61C7F12 HU-VH1-1 / HU-VL1-0
B20: 61C7F12-z7 (antibody, V domains shown)
VH: B10 VH with S49A
VL: B10 VL with Q3V, A44S, T73S
notes: Humanized, human IgG1 constant region; also called 61C7F12 HU-VH1-1 / HU-VL1-2
B21: 29H8D3-z12p1 (antibody, V domains shown)
VH: B1 VH with A40R, D55E, M70L, T72A
VL: B1 VL with A75D, A105Q
notes: PTM-removed variant of 29H8D3-z12
B22: 29H8D3-z12p9 (antibody, V domains shown)
VH: B1 VH with A40R, M70L, T72A
VL: B1 VL with A75D, M94H, A105Q
notes: as for B21
B23: 29H8D3-z12p10 (antibody, V domains shown)
VH: B1 VH with A40R, M70L, T72A
VL: B1 VL with A75D, M94K, A105Q
notes: PTM-removed variant of 29H8D3-z12; VH is that of 29H8D3-z12

For one assay, the target named is T1, hCDH17-his (full length extracellular domain of human CDH17, Q23-M787, his tag at the C-terminal) (human, UniProt Q12864 23-787).
T1 construct: Limits of the construct (UniProt Q12864, Q23-M787, C-terminal his tag); also called human CDH17-his protein; human CDH17 protein
T1 sequence: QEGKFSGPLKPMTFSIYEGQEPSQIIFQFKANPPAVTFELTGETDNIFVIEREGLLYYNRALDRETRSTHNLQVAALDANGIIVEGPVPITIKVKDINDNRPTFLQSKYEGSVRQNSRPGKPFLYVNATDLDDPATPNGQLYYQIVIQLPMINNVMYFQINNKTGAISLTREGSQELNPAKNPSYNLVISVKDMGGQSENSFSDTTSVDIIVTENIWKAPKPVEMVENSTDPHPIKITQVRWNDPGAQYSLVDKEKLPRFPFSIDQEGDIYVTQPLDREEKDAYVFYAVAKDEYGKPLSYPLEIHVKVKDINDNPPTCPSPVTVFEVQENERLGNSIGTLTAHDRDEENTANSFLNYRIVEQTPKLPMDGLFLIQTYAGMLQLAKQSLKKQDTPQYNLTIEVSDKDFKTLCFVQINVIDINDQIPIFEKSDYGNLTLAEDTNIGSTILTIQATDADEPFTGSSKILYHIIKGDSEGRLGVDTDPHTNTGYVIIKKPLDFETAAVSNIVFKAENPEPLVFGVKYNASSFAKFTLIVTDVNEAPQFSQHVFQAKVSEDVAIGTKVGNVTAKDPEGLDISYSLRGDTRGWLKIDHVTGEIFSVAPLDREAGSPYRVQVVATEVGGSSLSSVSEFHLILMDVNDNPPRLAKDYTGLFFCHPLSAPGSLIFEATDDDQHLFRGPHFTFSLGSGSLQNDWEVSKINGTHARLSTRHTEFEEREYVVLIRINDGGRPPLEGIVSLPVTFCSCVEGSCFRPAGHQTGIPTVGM
Put plainly: SPR (Biacore 8K), antibody captured on Protein A chip, hCDH17-his injected. Background: SPR reads the build-up and loss of mass on a sensor chip optically.
On to B1, for which the binding result is given as “binds”.
With B2, the binding result is on record as “binds”.
Take B3: the binding result was “binds”.
The same measure, in the same setting: for B4 the value was “binds”.
The same measure, in the same setting: under B5 stands “binds”; under B6, “binds”; under B7, “binds”.
Same read-out and setting: under B8 stands “binds”.
As to B9, the binding result is recorded as “binds”.
As for B10, the binding result is given as “binds”.
In the case of B11, the binding result is on record as “binds”.
The same measure, in the same setting: for B12 the value was “binds”; for B13, “binds”.
For the molecule B14, the binding result is on record as “binds”.
The same measure, in the same setting: for B15 the value was “binds”.

The target of the next assay is T2, human CDH17, full length, expressed on cells (HEK293-hCDH17); AsPC-1, HCT-8, AGS, LoVo, KATO III, HT-29 tumor … (human, UniProt Q12864 23-832).
T2 construct: also called human CDH17 expressed on tumor cells
T2 sequence: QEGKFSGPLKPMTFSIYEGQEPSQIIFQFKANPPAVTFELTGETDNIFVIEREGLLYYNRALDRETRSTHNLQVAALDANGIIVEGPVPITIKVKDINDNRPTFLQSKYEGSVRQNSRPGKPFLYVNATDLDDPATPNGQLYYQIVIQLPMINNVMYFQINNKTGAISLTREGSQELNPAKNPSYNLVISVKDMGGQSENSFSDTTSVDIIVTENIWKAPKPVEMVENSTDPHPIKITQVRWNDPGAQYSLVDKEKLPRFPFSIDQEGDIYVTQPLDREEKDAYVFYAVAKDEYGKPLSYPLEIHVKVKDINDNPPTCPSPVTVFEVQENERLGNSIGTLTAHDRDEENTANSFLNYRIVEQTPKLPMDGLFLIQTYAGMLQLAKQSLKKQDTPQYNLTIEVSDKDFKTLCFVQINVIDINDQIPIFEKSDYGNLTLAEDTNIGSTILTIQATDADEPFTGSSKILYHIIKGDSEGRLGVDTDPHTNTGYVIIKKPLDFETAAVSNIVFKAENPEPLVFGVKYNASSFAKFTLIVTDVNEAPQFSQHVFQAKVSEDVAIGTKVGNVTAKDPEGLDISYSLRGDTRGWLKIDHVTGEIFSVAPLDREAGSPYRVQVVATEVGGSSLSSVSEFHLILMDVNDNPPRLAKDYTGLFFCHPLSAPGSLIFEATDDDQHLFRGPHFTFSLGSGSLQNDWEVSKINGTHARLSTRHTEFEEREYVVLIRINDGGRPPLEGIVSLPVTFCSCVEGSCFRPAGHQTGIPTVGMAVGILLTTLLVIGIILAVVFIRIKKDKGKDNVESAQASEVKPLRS
Put plainly: flow cytometry, HEK293-hCDH17 cells. For orientation: Flow cytometry measures light scatter and fluorescence of single cells or particles in a stream.
B8: the binding result is “binds”.
Take B16: the binding result is listed as “binds”.
Same read-out and setting: for B9 the value was “binds”; for B10, “binds”; for B11, “binds”.
On the same count and under the same terms, under B17 stands “binds”; under B12, “binds”.
Regarding B18, the binding result is given as “binds”.
The same measure, in the same setting: under B13 stands “binds”.
On to B19, for which the binding result was “binds”.
On the same count and under the same terms, for B14 the value was “binds”; for B20, “binds”; for B15, “binds”.

The next assay concerns the target T1, hCDH17-his (full length extracellular …). Put plainly: SPR (Biacore 8K), two doses, antibody captured on Protein A chip, hCDH17-his at 25 nM and 100 nM.
In the case of B21, the binding result is on record as “binds”.
On the same count and under the same terms, under B22 stands “binds”.
On the same count and under the same terms, for B23 the value was “binds”.

The values above are taken from EP4806514A2 (Lepu Biopharma Co., Ltd., dated 2025).
